For data set [1], the target named is T1, GST-CCA1 (… CLOCK-ASSOCIATED1) (Arabidopsis thaliana, UniProt P92973 1-608). Nature of the data set: EMSA; 20 fmol probe, 5 ug protein; EMSA: 100 mM Tris-HCl pH 8.0, 5 mM DTT, 2.5 mM EDTA, 0.25% Triton X-100, 25% glycerin; competitor 15 min then probe 20 min; 4% native PAGE, 0.5x TBE; temperature not stated. Conditions: protein: recombinant; label: FITC on strand 1 (S35; printed after its 3' end); blunt.

The target in data set [2] is T1, GST-CCA1 (… CLOCK-ASSOCIATED1). Nature of the data set: competition (EMSA); 100x unlabeled competitor vs FITC-pFER; EMSA: 100 mM Tris-HCl pH 8.0, 5 mM DTT, 2.5 mM EDTA, 0.25% Triton X-100, 25% glycerin; competitor 15 min then probe 20 min; 4% native PAGE, 0.5x TBE; temperature not stated. Particulars: protein: recombinant; label: none; blunt. (In general: In EMSA bound probe runs differently from free probe, usually more slowly.)

The target is the same in data set [3]. Nature of the data set: competition (EMSA); 100x unlabeled competitor vs FITC-pFER; did not compete; EMSA: 100 mM Tris-HCl pH 8.0, 5 mM DTT, 2.5 mM EDTA, 0.25% Triton X-100, 25% glycerin; competitor 15 min then probe 20 min; 4% native PAGE, 0.5x TBE; temperature not stated. Particulars: protein: recombinant; label: none; blunt.

T1 sequence (P92973 whole entry): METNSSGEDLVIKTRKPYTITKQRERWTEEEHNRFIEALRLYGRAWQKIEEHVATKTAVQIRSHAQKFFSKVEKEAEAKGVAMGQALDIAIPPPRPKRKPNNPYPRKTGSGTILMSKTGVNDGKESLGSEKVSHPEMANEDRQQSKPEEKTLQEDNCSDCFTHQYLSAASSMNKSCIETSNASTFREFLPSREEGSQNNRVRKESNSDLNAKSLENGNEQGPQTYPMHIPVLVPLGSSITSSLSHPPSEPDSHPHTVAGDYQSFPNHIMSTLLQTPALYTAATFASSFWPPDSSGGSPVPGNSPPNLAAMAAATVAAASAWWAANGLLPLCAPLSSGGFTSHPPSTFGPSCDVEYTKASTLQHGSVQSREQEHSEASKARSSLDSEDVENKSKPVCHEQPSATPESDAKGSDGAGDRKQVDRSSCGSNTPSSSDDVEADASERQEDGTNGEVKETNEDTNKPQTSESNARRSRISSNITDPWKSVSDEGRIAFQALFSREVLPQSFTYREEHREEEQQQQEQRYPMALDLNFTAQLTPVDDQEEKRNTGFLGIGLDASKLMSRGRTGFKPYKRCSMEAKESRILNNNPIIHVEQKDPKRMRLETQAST

B1: pFER probe (EE element), FITC (dsDNA)
DNA 1: TCTCCCCCAAAATATCTCTGTCTTC
DNA 2: GAAGACAGAGATATTTTGGGGGAGA
With B1, the binding result in data set [1] was “binds”.

B2: pFER competitor A (unlabeled WT) (dsDNA)
DNA 1: TCTCCCCCAAAATATCTCTGTCTTC
DNA 2: GAAGACAGAGATATTTTGGGGGAGA
B2: the binding result in data set [2] is “binds”.

B3: pFER-Mutant competitor B (AAATATCT to GGGGGGGG) (dsDNA)
DNA 1: TCTCCCCCAGGGGGGGGCTGTCTTC
DNA 2: GAAGACAGCCCCCCCCTGGGGGAGA
For the molecule B3, the binding result in data set [3] is recorded as “no binding”.
